Data taken from patent US20020095023A1 (published 2002).
Ends that are not written are not given here.

B1: Recombinant rat HRF (IgE-dependent histamine-releasing factor) (ligand, UniProt P63029 1-172, looked up)
chain: MIIYRDLISHDELFSDIYKIREIADGLCLEVEGKMVSRTEGAIDDSLIGGNASAEGPEGEGTESTVVTGVDIVMNHHLQETSFTKEAYKKYIKDYMKSLKGKLEEQKPERVKPFMTGAAEQIKHILANFNNYQFFIGENMNPDGMVALLDYREDGVTPFMIFFKDGLEMEKC
notes: Expressed in E. coli from pRSET-A and purified on a Ni column; also called recombinant HRF protein; translationally controlled tumor protein; not shown: N-terminal His-tag leader of the pRSET-A vector

Experiments:
[1] = target: T1, (Na,K)ATPase as flowed in the Biacore analysis; test: Biacore (SPR); HRF immobilised on CM5 sensor chip, (Na,K)ATPase flowed
T1 construct: domain: large cytoplasmic loop; also called (Na,K)ATPase large cytoplasmic loop
Experimental: Recombinant rat HRF was immobilized on CM5 sensor chip at a concentration of […] in pH 4.0, 10 mM acetate and then, corrected by flowing HBS buffer (0.01 M Hepes, pH 7.4, 0.15 M NaCl, 3 mM EDTA, 0.005% surfactant P20). […] by flowing 50 mM NHS (N-hydroxysuccinimide) and 200 mM EDC(N-ethyl-N-(3-[…])carbodiimide). The binding affinity was measured by flowing (Na,K)ATPase.

[2] = target: B1; test: competition ELISA on HRF-coated wells, peptide added before phage ph2 (1/25 dilution), anti-M13-HRP
Experimental: (§1) Also, as a negative control, random peptide (ran, amino acid sequence: LMEGCRA) was synthesized. To the wells coated with HRF was added each 30 μl of the peptide solution serially diluted in 6% BSA/PBS from 1000 nM (1000, 100, 10, 1, 0.1, 0.01, 0.001 nM) and the solution was allowed to stand at room temperature for 30 minutes. The 1/25-fold diluted phage solution was added thereto and the whole solution was further allowed to stand for 2 hours. The solution was washed five times with PBST and then, each 100 μl of HRP-conjugated anti-M13 antibodies were added thereto and then, the resulting mixture was allowed to stand for 1 hour. The mixture was washed 6 times with PBST and once with PBS, and thereto was added each 100 μl of peroxydase substrate solution to examine the competition. It can be seen from the above figures that both of the synthetic peptides p2 and p4 bind to HRF competitively with phage clones ph2 and ph4.

BSA = target: T2, BSA (bovine, UniProt P02769); test: phage ELISA on coated wells, anti-M13-HRP
T2 construct: control coating of the ELISA wells; also called bovine serum albumin
Experimental: That is, the phage plaques were transferred to 1 ml of ER2537 culture solution cultivated in SB medium (OD₆₀₀=0.5˜1) and then, cultured in 37° C. incubator (rpm 250) for 5 hours. Each 100 μl of the culture solution was added to 900 μl of SB medium and cultured overnight. The culture solution was centrifuged twice at 14,000 rpm for 5 minutes per centrifugation and the obtained supernatant was used for ELISA.
To plastic wells, each of which was coated with HRF or BSA (control), 50 μl of a solution obtained by diluting each isolated phage solution with the equivalent amount of 6% BSA/PBS, and the resulting mixture was allowed to stand for 2 hours. After washing five times with PBST, 100 μl of HRP-conjugated anti-M13 antibodies (Pharmacia) diluted in 3% BSA/PBS with the ratio of 1:5000 were added thereto and the whole was allowed to stand for 1 hour. After washing six times with PBST and then, once with PBS, 100 μl of peroxydase substrate solution was added thereto. The chromogenicity was measured using ELISA reader at 405 nm. From FIG. 12, it can be seen that the phages ph1, ph2 and ph4, especially ph2 and ph4, specifically bind to HRF.

[3] = target: B1; test: competition ELISA on HRF-coated wells against phage ph2, anti-M13-HRP
Experimental: as §1
b) In order to test whether or not p1, p2 and p4 bind to the identical site on HRF, the wells were coated with HRF according to the substantially same procedure as in the above a). As shown FIG. 14c, p1, p2 and p4 bound to the identical site on HRF.

[4] = target: B1; test: competition ELISA on HRF-coated wells, peptide added before phage ph4 (1/25 dilution), anti-M13-HRP
Experimental: as §1

T2 sequence (P02769 25-607 limits assumed): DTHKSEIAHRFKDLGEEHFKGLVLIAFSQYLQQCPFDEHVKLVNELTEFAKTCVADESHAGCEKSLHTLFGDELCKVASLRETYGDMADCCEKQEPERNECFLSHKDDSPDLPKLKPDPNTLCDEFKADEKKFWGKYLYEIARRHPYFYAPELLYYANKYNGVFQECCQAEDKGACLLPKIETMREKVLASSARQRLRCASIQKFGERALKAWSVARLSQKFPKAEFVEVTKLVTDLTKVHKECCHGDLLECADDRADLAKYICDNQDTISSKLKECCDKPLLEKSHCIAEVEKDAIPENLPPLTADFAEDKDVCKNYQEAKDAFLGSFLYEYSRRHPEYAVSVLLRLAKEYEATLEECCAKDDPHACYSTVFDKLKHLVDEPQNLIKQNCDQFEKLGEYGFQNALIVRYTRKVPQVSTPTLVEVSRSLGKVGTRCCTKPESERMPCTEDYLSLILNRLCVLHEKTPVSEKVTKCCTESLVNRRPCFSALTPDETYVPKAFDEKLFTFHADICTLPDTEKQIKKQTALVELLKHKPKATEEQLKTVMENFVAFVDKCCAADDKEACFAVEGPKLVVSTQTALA

| Binder | binding result (BSA) | IC50 (read off the curve) [3] [nM] | further results |
| --- | --- | --- | --- |
| B1 | – | – | Kd [1]: 850 nM |
| WYVYPSM [synthetic heptapeptide p2] | – | – | IC50 (read off the curve) [2]: ~40 nM |
| WYVYPSM (also: displayed on phage coat protein, Whole phage particle in the assay; also called ph2 clone; not shown: phage coat protein of the heptamer library (New England Biolabs); linker and coat protein not described) [phage ph2 displaying peptide p2] | no binding | – | – |
| WEFPGWM [synthetic heptapeptide p4] | – | ~20 | IC50 (read off the curve) [4]: ~10 nM |
| LVTYPLP [synthetic heptapeptide p1] | – | ~20 | – |
| WEFPGWM (also: displayed on phage coat protein, Whole phage particle in the assay; not shown: phage coat protein of the heptamer library (New England Biolabs); linker and coat protein not described) [phage ph4 displaying peptide p4] | no binding | – | – |
